Experimental data taken from the supplement of paper PMC9170038.

test system: MS2 coat protein; assay: apparent KD of MS2 coat protein, switch ON state; designed switch direction (-1 OFF switch, 1 ON switch): -1; higher = weaker reporter binding; conditions: FMN input: 0 or 200 uM; Eterna round: R93 (includes R88 designs)
How it was run: (§1)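 Apparent KD per design is the median of normalised cluster binding-curve fits. Designed RNA switches transcribed on-chip from Illumina sequencing clusters were titrated with SNAP-549-labelled MS2 coat protein in twofold steps from 0.7 or 1.5 nM to 3 µM, with 0.8–1.5 h down to 10–20 min per step. Buffer: 100 mM Tris-HCl pH 7.5, 80 mM KCl, 4 mM MgCl2, without or with constant ligand.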

“GAAAAACAUGAGGAUCACCCAUGUAAGGAUAUGCUAAAAAACACGGAAAAACGUGAUAGCAGAAGGUACAAAAA [Mat - Exclusion 1 - Eli mod - D89]” and “AAAAAGGGAGGAUAUACGAAACAGGGAAACCUGAAAAGGAGACAUGAGGAUCACCCAUGUAGAAGGCCCAAGAA [Clint Eastwood 64% 4]” are within 1.5-fold of each other in “apparent KD of MS2 coat protein” value: 24.1 nM for the first, 25.3 nM for the second.

First: AGUUGGCGAGGAUAUACAUGAGGAUCACCCAUGUGAGAGAAAAAAGUGAGAAAGAAAAGUAGAAGGCGCGGACA [Ruby 1]
Second: AAGGGACAUGAGGAUCACCCAUGUCAGGAUAUGAUGCGAAUAAAGAAAGAAUAAAGCAUCAGAAGGGACACCAA [Mat - Exclusion 1 - Eli mod - D64]
The “apparent KD of MS2 coat protein” value of the first is 2.1-fold higher: 47.3 nM for the first, 23 nM for the second.

Going from “AAAUGACUAGGAUAUACAUGAGGAUCACCCAUGUGUAUAAAUAAAUACACAAAAGAAAGUAGAAGGAGUCAAAG [Mat - Exclusion 3 - Mayanna mod - D123]” to “AACUAGUGAGGAUAUACAAGAAUAUAAACAAAAAUGAAGGGACAUGAGGAUCACCCAUGUAGAAGGCACUAACA [Diamond 71]”, the “apparent KD of MS2 coat protein” value rises from 20.6 nM to 34 nM (1.7-fold).

“UCUUGACAUGAGGAUCACCCAUGUCAGGAUAUAGUAGGACAAAUAAAUAAAAGUAAUACUAGAAGGGAUAUGGG [Amethyst 52]” and “GGUUGGCGAGGAUAUACAUGAGGAUCACCCAUGUGAGAGAAAAAAGUGAGAACGAAAAGUAGAAGGCGCUGACG [salish99-ex3-25]” are within 1.5-fold of each other in “apparent KD of MS2 coat protein” value: 29.8 nM for the first, 23.5 nM for the second.

Compared with “AUUAAACAUGAGGAUCACCCAUGUGAGGAUAUGCAAAAAAAAUUAUAUUAAAAAAAAAGCAGAAGGCACAUAUA [coft]”, “AAAUAGUUAGGAUAUACAUGAGGAUCACCCAUGUGCACGUAUGGAGAAUAUGGUGGUGGUAGAAGGGACUAAAA [EX2 Malc#20]” is 1.5-fold higher in “apparent KD of MS2 coat protein” value: 36.3 nM for the first, 55.5 nM for the second.

Going from “AGUAGAUCAGGAUAUACAUGAAAGAUCAAAAUGUCCAAUAUACAUGAGGAUCACCCAUGUAGAAGGGAUCUACA [Ex2 Design 115: Not so Super Stable 2]” to “AAAUGACAUGAGGAUCACCCAUGUCAGGAUAUGACUUGAAAAUAAAAUAAAAAACAUGUCAGAAGGGACAUGGG [Design 50: Sub-opt F]”, the “apparent KD of MS2 coat protein” value falls from 99.9 nM to 20.3 nM (4.9-fold).

First: AAGGAGUGAGGAUAUACAUGAGGAUCACCCAUGUUGAUGGAAACGUCAGAGAAAGAAGGUAGAAGGCACAAGAA [JR_Exclusion3_Sub6]
Second: AAGAACUGAGGAUAUACAUAAUAAAAGAAAAGAAAGAAAGAACAUGAGGAUCACCCAUGUAGAAGGCGGAAGAA [Khaneferre Sobekhotep IV]
The “apparent KD of MS2 coat protein” value of the first is 1.6-fold higher: 51.2 nM for the first, 32.7 nM for the second.

Compared with “GAGGCUGAAGGAUAUACAAGGGCCUCACCGCCAAGGCGGAAACAUGAGGAUCACCCAUGUAGAAGGUCAAUAAA [Usrisore]”, “AAAAAGUUAGGAUAUACAGAUAAAAAAACGAAAAAAAAUCUGUAGAAGGAACAUGAGGAUCACCCAUGUAAAAA [Ex 4 May 2]” is 5.5-fold lower in “apparent KD of MS2 coat protein” value: 140 nM for the first, 25.6 nM for the second.

First: AAAAAGCGAGGAUAUACAUGAGGAUCACCCAUGUGAGAGAAAAAAAGGAGAAAAAAAAGUAGAAGGCGCAAAAA [Abraham Harold Maslow]
Second: ACAGCGUGAGGAUAUACAUGAGGAUCACCCAUGUGAAACAGGAAAAACUGAAAGACAUGUAGAAGGCACGCUGA [Exclusion 3.3 (Janderson's 'Tweaking Eli' some more )]
The “apparent KD of MS2 coat protein” value of the first is 4.1-fold lower: 63.8 nM for the first, 263 nM for the second.

test system: MS2 coat protein; assay: apparent KD of MS2 coat protein, switch OFF state (with FMN for OFF switches, without FMN for ON switches); designed switch direction (-1 OFF switch, 1 ON switch): -1; higher = weaker reporter binding; conditions: FMN input: 0 or 200 uM; Eterna round: R93 (includes R88 designs)
How it was run: as §1

“GAAAAACAUGAGGAUCACCCAUGUAAGGAUAUGCUAAAAAACACGGAAAAACGUGAUAGCAGAAGGUACAAAAA [Mat - Exclusion 1 - Eli mod - D89]” and “AAAAAGGGAGGAUAUACGAAACAGGGAAACCUGAAAAGGAGACAUGAGGAUCACCCAUGUAGAAGGCCCAAGAA [Clint Eastwood 64% 4]” are within 1.5-fold of each other in “apparent KD of MS2 coat protein” value: 36.5 nM for the first, 53.3 nM for the second.

Compared with “AGUUGGCGAGGAUAUACAUGAGGAUCACCCAUGUGAGAGAAAAAAGUGAGAAAGAAAAGUAGAAGGCGCGGACA [Ruby 1]”, “AAGGGACAUGAGGAUCACCCAUGUCAGGAUAUGAUGCGAAUAAAGAAAGAAUAAAGCAUCAGAAGGGACACCAA [Mat - Exclusion 1 - Eli mod - D64]” is 1.6-fold lower in “apparent KD of MS2 coat protein” value: 70.4 nM for the first, 44.6 nM for the second.

Going from “AAAUGACUAGGAUAUACAUGAGGAUCACCCAUGUGUAUAAAUAAAUACACAAAAGAAAGUAGAAGGAGUCAAAG [Mat - Exclusion 3 - Mayanna mod - D123]” to “AACUAGUGAGGAUAUACAAGAAUAUAAACAAAAAUGAAGGGACAUGAGGAUCACCCAUGUAGAAGGCACUAACA [Diamond 71]”, the “apparent KD of MS2 coat protein” value rises from 60.5 nM to 106 nM (1.8-fold).

Going from “UCUUGACAUGAGGAUCACCCAUGUCAGGAUAUAGUAGGACAAAUAAAUAAAAGUAAUACUAGAAGGGAUAUGGG [Amethyst 52]” to “GGUUGGCGAGGAUAUACAUGAGGAUCACCCAUGUGAGAGAAAAAAGUGAGAACGAAAAGUAGAAGGCGCUGACG [salish99-ex3-25]”, the “apparent KD of MS2 coat protein” value rises from 32.6 nM to 1340 nM (41-fold).

Compared with “AUUAAACAUGAGGAUCACCCAUGUGAGGAUAUGCAAAAAAAAUUAUAUUAAAAAAAAAGCAGAAGGCACAUAUA [coft]”, “AAAUAGUUAGGAUAUACAUGAGGAUCACCCAUGUGCACGUAUGGAGAAUAUGGUGGUGGUAGAAGGGACUAAAA [EX2 Malc#20]” is 1.5-fold higher in “apparent KD of MS2 coat protein” value: 62.3 nM for the first, 94.7 nM for the second.

Compared with “AGUAGAUCAGGAUAUACAUGAAAGAUCAAAAUGUCCAAUAUACAUGAGGAUCACCCAUGUAGAAGGGAUCUACA [Ex2 Design 115: Not so Super Stable 2]”, “AAAUGACAUGAGGAUCACCCAUGUCAGGAUAUGACUUGAAAAUAAAAUAAAAAACAUGUCAGAAGGGACAUGGG [Design 50: Sub-opt F]” is 3.3-fold lower in “apparent KD of MS2 coat protein” value: 50.5 nM for the first, 15.5 nM for the second.

Going from “AAGGAGUGAGGAUAUACAUGAGGAUCACCCAUGUUGAUGGAAACGUCAGAGAAAGAAGGUAGAAGGCACAAGAA [JR_Exclusion3_Sub6]” to “AAGAACUGAGGAUAUACAUAAUAAAAGAAAAGAAAGAAAGAACAUGAGGAUCACCCAUGUAGAAGGCGGAAGAA [Khaneferre Sobekhotep IV]”, the “apparent KD of MS2 coat protein” value falls from 54.1 nM to 24.5 nM (2.2-fold).

Going from “GAGGCUGAAGGAUAUACAAGGGCCUCACCGCCAAGGCGGAAACAUGAGGAUCACCCAUGUAGAAGGUCAAUAAA [Usrisore]” to “AAAAAGUUAGGAUAUACAGAUAAAAAAACGAAAAAAAAUCUGUAGAAGGAACAUGAGGAUCACCCAUGUAAAAA [Ex 4 May 2]”, the “apparent KD of MS2 coat protein” value falls from 103 nM to 16.7 nM (6.2-fold).

Compared with “AAAAAGCGAGGAUAUACAUGAGGAUCACCCAUGUGAGAGAAAAAAAGGAGAAAAAAAAGUAGAAGGCGCAAAAA [Abraham Harold Maslow]”, “ACAGCGUGAGGAUAUACAUGAGGAUCACCCAUGUGAAACAGGAAAAACUGAAAGACAUGUAGAAGGCACGCUGA [Exclusion 3.3 (Janderson's 'Tweaking Eli' some more )]” is 2.4-fold lower in “apparent KD of MS2 coat protein” value: 68.3 nM for the first, 28.7 nM for the second.
